Measured values reported in patent US20230123431.

Tests used:
[1] = target: T1, Lat1p (lipoate-bound subunit of pyruvate dehydrogenase, PDH), P12695
T1 chain: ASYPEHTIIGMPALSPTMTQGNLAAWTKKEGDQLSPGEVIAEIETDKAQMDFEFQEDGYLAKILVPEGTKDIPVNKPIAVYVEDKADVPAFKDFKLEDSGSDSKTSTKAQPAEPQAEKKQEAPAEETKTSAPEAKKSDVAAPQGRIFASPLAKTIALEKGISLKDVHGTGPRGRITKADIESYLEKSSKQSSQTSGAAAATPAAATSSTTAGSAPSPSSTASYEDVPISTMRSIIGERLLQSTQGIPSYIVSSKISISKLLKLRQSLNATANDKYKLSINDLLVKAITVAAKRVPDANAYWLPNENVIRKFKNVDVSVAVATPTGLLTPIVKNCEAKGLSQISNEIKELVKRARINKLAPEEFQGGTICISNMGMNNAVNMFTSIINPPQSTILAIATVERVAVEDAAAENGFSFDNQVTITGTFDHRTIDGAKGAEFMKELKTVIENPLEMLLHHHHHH

[2] = target: T2, Kgd2p (lipoate-bound subunit of alpha-ketoglutarate dehydrogenase, KGDC), P19262
T2 chain: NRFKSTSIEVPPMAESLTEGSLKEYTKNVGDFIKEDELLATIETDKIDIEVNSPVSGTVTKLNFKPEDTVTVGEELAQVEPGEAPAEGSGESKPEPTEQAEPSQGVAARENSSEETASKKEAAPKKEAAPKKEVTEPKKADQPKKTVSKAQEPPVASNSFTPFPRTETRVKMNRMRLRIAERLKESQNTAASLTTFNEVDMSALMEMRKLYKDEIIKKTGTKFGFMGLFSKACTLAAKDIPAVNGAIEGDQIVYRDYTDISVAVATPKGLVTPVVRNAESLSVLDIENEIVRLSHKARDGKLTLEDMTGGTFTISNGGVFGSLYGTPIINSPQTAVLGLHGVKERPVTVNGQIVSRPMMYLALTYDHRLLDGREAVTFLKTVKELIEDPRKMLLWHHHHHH

[3] = target: T3, Gcv3p (H protein of the glycine cleavage system), lipoylated
T3 chain: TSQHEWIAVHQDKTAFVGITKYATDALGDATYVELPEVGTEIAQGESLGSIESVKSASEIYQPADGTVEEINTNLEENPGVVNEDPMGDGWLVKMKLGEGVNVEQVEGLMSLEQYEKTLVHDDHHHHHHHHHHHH

B1: lipoamidase from Enterococcus faecalis (EfLPA) (protein)
chain: MLSLRQSIRFFKPATRTLCSSRYLLQQKPMLAQESILETTVQTETESVTTETSQTVANLESETTSQTVMQEKESSSAIAESSSRNVVAVTTETTNEIQNSGTDGKAVSAESVFSEADYKQATALELATLVREKKVTSEELVKIALAITKRENPTLNAVITLREEAALTEAKALQDTGQPFLGVPLLLKGLGQSLKGESNTNGFGFLRDQVAGGTSTFVKALQNAGFIIIGQTNYPELGWKNISDSKLYGVSVNPWNPNHYSGGSSGGAGASVAAAFVPIASGSDAGGSIRIPASWTGTVGLKPSRGVIIGNSNSAKGQTVHFGLSRTVADTNALFETLLTKKDLPAGHLSQAQPIAYTTESPAGTPVSAEAKEAVAEAVAFLKDQGYTLVEVKHPVDGERLMKNYYTVAAGSAGIADFMARQKLKRPLERNDVELLTWALFQTGKNITSEETTAAWTDIALQAQAMDEFYQQYPILLTPTTAATAPSIDNPLLKPEHAAQMEKIDQLSPAEQKQLIYDQWLTAFTYTPFTQQANLFGHPALSVPTYVSKEGLPLGIQFNSALNEDRTLLQLGALFENNHKINQPHVEEPDKDKEPDASGEPEKDKDPNASGEPDKDKEPDASGEPDKDKEPDASGEPDKDKEPDASGKPDKDKETKTSEGPIEGKDQNQNPDKAGKTTSGSSLDNSLNSSANQGTKSTESTHAFSNKSMIGKQEQLPKKVLPKAGAEVPSTFWIVLGGAFLVTSGTIYIRKTRKHHHHHHHHHHHH
lipoic acid released (LC-MS/MS) after incubation of the purified proteins at 37 C for 2 h [1]: no lipoic acid was observed in the reaction mixtures containing EfLPA with Kgd2p or Lat1p individually
lipoic acid released (LC-MS/MS) after incubation of the purified proteins at 37 C for 2 h [2]: no lipoic acid was observed in the reaction mixtures containing EfLPA with Kgd2p or Lat1p individually
lipoic acid released (LC-MS/MS, confirmed by GC-MS) after incubation of the purified proteins at 37 C for 2 h [3]: Only the reaction of EfLPA with Gcv3p resulted in a peak with m/z 205.0360 (FIG. 5B) indicative of lipoic acid
